Reference: the supplement of paper PMC10567573

B1: C9orf9 (parent)
chain: LTKASLKPRGCSKPPWRPPGGKL
B2: VDR (parent)
chain: LIKFQVGLKKLNLHEEEHVLLMAI

Variants of: B1
Assay: protein stability index of a GFP-peptide fusion (GPS, HEK-293T) (PSI 1-6); higher = more stable
Settings: c terminus: native
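Note: lentivirally expressed fusions sorted by FACS into six bins by GFP to DsRed ratio, PSI derived from sequencing read proportions per bin multiplied by bin number.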

Protein stability index: each site, then its substitutions
P19: H 2.23, F 1.69, E 4.05, R 2.6, G 3.44, M 3.15, Y 1.22, S 3.87, N 4.1, I 1.24, L 3.21, D 4.43, V 1.78, T 3.72, C 2.91
G20: V 3.83, R 2.18, M 2.13, S 2.76, H 3.77, N 2.27, D 4.64, Y 2.56, F 3.03, I 2.42, K 3.36, C 2.91
G10: I 2.47, R 3.37, L 2.96, W 2.02, P 2.24, S 2.7, A 2.74, Q 1.88, F 1.91, N 2.06, E 2.18, T 2.5, M 2.19, H 2.29, C 1.97, V 2.19, K 2.43, Y 2.25, D 2.36
S12: F 1.3, T 3.8, H 1.53, R 1.34, V 2.52, L 1.66, G 1.99, W 3.5, N 2.05, E 2.02, I 2.3, M 5.53, P 1.48, A 2.42, C 1.49
L1: E 2.09, Q 3.17, N 3.8, F 2.29, K 1.85, T 1.85, W 1.89, Y 2.31, M 1.86, I 1.71, R 2.13, P 2.06, D 1.76, S 2.78, G 2.5, V 1.8, H 1.82
S5: I 2.9, Q 3.27, H 1.55, L 2.21, P 2.21, N 1.99, E 1.81, T 2.08, C 1.86, V 2.5, F 2.03, G 1.24, A 2.57, M 1.83, K 2.43, W 3.95, D 1.19
P18: I 2.18, M 3.68, K 2.85, L 1.32, H 3.78, Y 2.86, N 2.93, W 2.9, R 2.46, Q 2.26
K22: F 2.03, C 3.7, M 2.73, G 2.1
T2: Q 1.32, D 1.78, S 2.59, N 2.21, G 1.36, H 2.12, V 1.58, K 2.28, R 1.85, L 2.26, F 1.95, P 2.72, A 1.67, I 1.86, C 1.96
L6: H 1.89, P 1.9, R 2.17, I 1.37, Q 4.53, T 1.87, D 1.5, Y 2.04, S 2.47, F 2.35
P15: Y 2.73, W 1.16, R 2.34, G 2.02, M 1.78, H 2.18, L 3.21, D 3.75, T 3.08, V 2.02, Q 2.77, N 1.77, E 3.93, I 2.36
C11: Y 1.27, P 1.65, G 2.13, W 2.1, V 2.1, N 1.58, D 1.76, I 2.1, L 2.39, H 3.08, Q 1.54, S 2, M 1.71
R17: D 3.87, L 3.69, P 2.71, Q 4.16, V 3.35, M 3.49, F 3.37, W 3.47, S 4.71, K 3.26, A 3.53, N 4.2
K3: Q 2.6, Y 2.73, E 1.97, S 1.91, D 2.39, P 2.66, A 1.38, G 1.74, V 2.86, F 1.51, N 2.08, T 2.19, L 2.36, H 2.28
K7: N 2.32, L 1.69, C 1.68, H 2.31, V 2.25, T 2.25, E 1.51, A 2.72, S 1.53, M 2.66, F 1.78, I 1.56, G 1.51
P8: H 1.65, F 2.51, Y 2.15, W 4.77, M 2.53, A 3.56, L 2.77, Q 4.76
R9: H 1.35, L 2.96, P 1.34, W 2.31, N 2.07, E 1.9, S 1.95, G 1.37, V 2.91, Y 3.3, M 2.33, I 1.85, F 1.15, Q 2.68, C 3.36, A 1.7, T 1.45
A4: L 1.08, W 2.44, C 1.63, H 1.96, Q 1.65, M 1.69, N 2, D 1.25, K 1.8, T 1.78, P 3.55, S 2.02, G 1.36, F 1.75, I 1.61, V 1.58
G21: Y 2.35, R 1.75, K 4.05, A 1.86, W 2.02, P 2.03, V 3.39
P14: W 1.94, L 2.24, S 1.38, A 1.54, V 2.36
W16: F 2.03, I 1.87, E 2.19, V 3.43, G 2.29, Y 2.25
K13: D 3.65, M 2.87, E 3.46, G 2.78, S 2.62, C 2.9, R 1.49, Q 2.3, I 2.1

Variants of: B2
Assay: as above
Settings: c terminus: a fixed tail appended

Protein stability index of substitutions, site by site:
M22: G 2.01, E 1.15, K 1.7, Q 2.36, D 1.17, W 2.81, C 2.61, S 1.68, H 2.06, R 1.33, A 3.3, F 2.88, I 2.91, T 1.84, L 2.66, N 2.99, P 2.09, Y 2.25
V19: W 1.04
L20: P 2.31, E 2.24, C 3.71, K 1.91, V 1.01, H 1.86, T 2.4, M 2.15, I 2.83, Y 2.9, A 2.05, G 4.03, D 1.19, F 2.29, Q 1.81
A23: D 3.29, E 2.23, V 1.85, R 2.37, Y 3.16, L 3.49, H 2.49
L21: C 3.18, K 3.43, M 2.45, V 4.64, Y 2.92, Q 2.02, P 1.69, N 1.68, S 2.08, G 2.76, D 1.85
I24: A 2.8, F 3.74, E 2.55, N 2.74, D 1.87, K 2.69, Q 2.48, R 2.35, C 3.08, Y 3.26, S 1.97, T 1.85, W 2.33, P 1.21
